Laboratory results published in patent US20040265797A1 (CHIRON, published 2004).
One block for each binder: values may come before it. Square brackets hold non-standard residues; d marks the D form. Ends that are not written are not given here. 1Nal = N[C@@H](Cc1cccc2ccccc12)C(=O)O; 2Nal = N[C@@H](Cc1ccc2ccccc2c1)C(=O)O; Nle = CCCC[C@H](N)C(=O)O; Abu = CC[C@H](N)C(=O)O

What was measured:
[1] = biological target: T1, Soluble recombinant human urokinase receptor (suPAR) (human, UniProt Q03405 23-299, limits assumed, biotinylated in the plate assays (sites not given)); experiment: competition with phage displaying peptide 25 for soluble uPAR
T1 construct: Only called a soluble truncated form of the urokinase receptor; also called soluble uPAR; biotinylated suPAR
T1 sequence (Q03405 23-299 limits assumed): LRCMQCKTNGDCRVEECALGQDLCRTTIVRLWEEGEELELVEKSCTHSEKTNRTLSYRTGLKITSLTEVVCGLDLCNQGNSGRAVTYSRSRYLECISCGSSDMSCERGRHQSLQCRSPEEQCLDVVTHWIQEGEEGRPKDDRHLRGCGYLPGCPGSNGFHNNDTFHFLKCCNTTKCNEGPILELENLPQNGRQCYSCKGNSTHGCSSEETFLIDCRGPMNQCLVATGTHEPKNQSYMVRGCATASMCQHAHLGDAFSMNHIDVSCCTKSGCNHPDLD
Experimental: (§1) The final anti-M13 conjugate dilution was 1:4000.
(§2) These concentrations were calculated based on the synthesis reactions.

[2] = biological target: T1, Soluble recombinant human urokinase …; experiment: competition with phage displaying peptide 9 for soluble uPAR
Experimental: as §1, §2

- % Inhibition at 5 uM [1]: 91%
B1: Analog 44 (peptide)
peptide: AESTYHHLSLGY[Nle]YTLN-NH2
modifications: N-terminus assumed
SMILES: CCCC[C@H](NC(=O)[C@H](Cc1ccc(O)cc1)NC(=O)CNC(=O)[C@H](CC(C)C)NC(=O)[C@H](CO)NC(=O)[C@H](CC(C)C)NC(=O)[C@H](Cc1c[nH]cn1)NC(=O)[C@H](Cc1c[nH]cn1)NC(=O)[C@H](Cc1ccc(O)cc1)NC(=O)[C@@H](NC(=O)[C@H](CO)NC(=O)[C@H](CCC(=O)O)NC(=O)[C@H](C)N)[C@@H](C)O)C(=O)N[C@@H](Cc1ccc(O)cc1)C(=O)N[C@H](C(=O)N[C@@H](CC(C)C)C(=O)N[C@@H](CC(N)=O)C(N)=O)[C@@H](C)O

- % Inhibition at 2.5 uM [1]: 22%
- % Inhibition at 5 uM [1]: 75%
B3: Analog 60 (peptide)
peptide: AESTYHHLSLGYMYT[dL]N-NH2
modifications: N-terminus assumed
SMILES: CSCC[C@H](NC(=O)[C@H](Cc1ccc(O)cc1)NC(=O)CNC(=O)[C@H](CC(C)C)NC(=O)[C@H](CO)NC(=O)[C@H](CC(C)C)NC(=O)[C@H](Cc1c[nH]cn1)NC(=O)[C@H](Cc1c[nH]cn1)NC(=O)[C@H](Cc1ccc(O)cc1)NC(=O)[C@@H](NC(=O)[C@H](CO)NC(=O)[C@H](CCC(=O)O)NC(=O)[C@H](C)N)[C@@H](C)O)C(=O)N[C@@H](Cc1ccc(O)cc1)C(=O)N[C@H](C(=O)N[C@H](CC(C)C)C(=O)N[C@@H](CC(N)=O)C(N)=O)[C@@H](C)O

- % Inhibition at 2.5 uM [1]: 61%
- % Inhibition at 5 uM [1]: 78%
B4: Analog 36 (peptide)
peptide: AEST[2Nal]HHLSLGYMYTLN-NH2
modifications: N-terminus assumed
SMILES: CSCC[C@H](NC(=O)[C@H](Cc1ccc(O)cc1)NC(=O)CNC(=O)[C@H](CC(C)C)NC(=O)[C@H](CO)NC(=O)[C@H](CC(C)C)NC(=O)[C@H](Cc1c[nH]cn1)NC(=O)[C@H](Cc1c[nH]cn1)NC(=O)[C@H](Cc1ccc2ccccc2c1)NC(=O)[C@@H](NC(=O)[C@H](CO)NC(=O)[C@H](CCC(=O)O)NC(=O)[C@H](C)N)[C@@H](C)O)C(=O)N[C@@H](Cc1ccc(O)cc1)C(=O)N[C@H](C(=O)N[C@@H](CC(C)C)C(=O)N[C@@H](CC(N)=O)C(N)=O)[C@@H](C)O

- % Inhibition at 2.5 uM [2]: 59%
- % Inhibition at 5 uM [2]: 71%
Binder: AEFFKLGPNGYVYLHSA-NH2 (also called analogs 62-64) [Peptide 9 (synthetic peptide of clone 9)]

- % Inhibition at 2.5 uM [1]: 31%
- % Inhibition at 5 uM [1]: 59%
B7: Analog 45 (peptide)
peptide: AESTYHHLSLGY[Abu]YTLN-NH2
modifications: N-terminus assumed
SMILES: CC[C@H](NC(=O)[C@H](Cc1ccc(O)cc1)NC(=O)CNC(=O)[C@H](CC(C)C)NC(=O)[C@H](CO)NC(=O)[C@H](CC(C)C)NC(=O)[C@H](Cc1c[nH]cn1)NC(=O)[C@H](Cc1c[nH]cn1)NC(=O)[C@H](Cc1ccc(O)cc1)NC(=O)[C@@H](NC(=O)[C@H](CO)NC(=O)[C@H](CCC(=O)O)NC(=O)[C@H](C)N)[C@@H](C)O)C(=O)N[C@@H](Cc1ccc(O)cc1)C(=O)N[C@H](C(=O)N[C@@H](CC(C)C)C(=O)N[C@@H](CC(N)=O)C(N)=O)[C@@H](C)O
notes: T0004 prints Y there, as in peptide 25; Y is used

- % Inhibition at 2.5 uM [1]: 35%
- % Inhibition at 5 uM [1]: 61%
B9: Analog 47 (peptide)
peptide: A[dE]STYHHLSLGYMYTLN-NH2
modifications: N-terminus assumed
SMILES: CSCC[C@H](NC(=O)[C@H](Cc1ccc(O)cc1)NC(=O)CNC(=O)[C@H](CC(C)C)NC(=O)[C@H](CO)NC(=O)[C@H](CC(C)C)NC(=O)[C@H](Cc1c[nH]cn1)NC(=O)[C@H](Cc1c[nH]cn1)NC(=O)[C@H](Cc1ccc(O)cc1)NC(=O)[C@@H](NC(=O)[C@H](CO)NC(=O)[C@@H](CCC(=O)O)NC(=O)[C@H](C)N)[C@@H](C)O)C(=O)N[C@@H](Cc1ccc(O)cc1)C(=O)N[C@H](C(=O)N[C@@H](CC(C)C)C(=O)N[C@@H](CC(N)=O)C(N)=O)[C@@H](C)O

- % Inhibition at 2.5 uM [1]: 63%
- % Inhibition at 5 uM [1]: 82%
Binder: AESTYHHLSLGYVYTLN-NH2 [Analog 43]

- % Inhibition at 2.5 uM [2]: 15%
- % Inhibition at 5 uM [2]: 13%
B13: Analog 89 (peptide)
peptide: AEFFKLGP[dN]GYVYLHSA-NH2
modifications: N-terminus assumed
SMILES: CC(C)C[C@H](NC(=O)[C@H](CCCCN)NC(=O)[C@H](Cc1ccccc1)NC(=O)[C@H](Cc1ccccc1)NC(=O)[C@H](CCC(=O)O)NC(=O)[C@H](C)N)C(=O)NCC(=O)N1CCC[C@H]1C(=O)N[C@H](CC(N)=O)C(=O)NCC(=O)N[C@@H](Cc1ccc(O)cc1)C(=O)N[C@H](C(=O)N[C@@H](Cc1ccc(O)cc1)C(=O)N[C@@H](CC(C)C)C(=O)N[C@@H](Cc1c[nH]cn1)C(=O)N[C@@H](CO)C(=O)N[C@@H](C)C(N)=O)C(C)C

Further lines, the binder ahead of its results:

B2: Analog 35 (peptide)
peptide: AEST[1Nal]HHLSLGYMYTLN-NH2
modifications: N-terminus assumed
SMILES: CSCC[C@H](NC(=O)[C@H](Cc1ccc(O)cc1)NC(=O)CNC(=O)[C@H](CC(C)C)NC(=O)[C@H](CO)NC(=O)[C@H](CC(C)C)NC(=O)[C@H](Cc1c[nH]cn1)NC(=O)[C@H](Cc1c[nH]cn1)NC(=O)[C@H](Cc1cccc2ccccc12)NC(=O)[C@@H](NC(=O)[C@H](CO)NC(=O)[C@H](CCC(=O)O)NC(=O)[C@H](C)N)[C@@H](C)O)C(=O)N[C@@H](Cc1ccc(O)cc1)C(=O)N[C@H](C(=O)N[C@@H](CC(C)C)C(=O)N[C@@H](CC(N)=O)C(N)=O)[C@@H](C)O
- % Inhibition at 2.5 uM [1]: 70%
- % Inhibition at 5 uM [1]: 94%

B5: Analog 83 (peptide)
peptide: A[dE]FFKLGPNGYVYLHSA-NH2
modifications: N-terminus assumed
SMILES: CC(C)C[C@H](NC(=O)[C@H](CCCCN)NC(=O)[C@H](Cc1ccccc1)NC(=O)[C@H](Cc1ccccc1)NC(=O)[C@@H](CCC(=O)O)NC(=O)[C@H](C)N)C(=O)NCC(=O)N1CCC[C@H]1C(=O)N[C@@H](CC(N)=O)C(=O)NCC(=O)N[C@@H](Cc1ccc(O)cc1)C(=O)N[C@H](C(=O)N[C@@H](Cc1ccc(O)cc1)C(=O)N[C@@H](CC(C)C)C(=O)N[C@@H](Cc1c[nH]cn1)C(=O)N[C@@H](CO)C(=O)N[C@@H](C)C(N)=O)C(C)C
- % Inhibition at 2.5 uM [2]: 44%
- % Inhibition at 5 uM [2]: 59%

B6: Analog 54 (peptide)
peptide: AESTYHHL[dS]LGYMYTLN-NH2
modifications: N-terminus assumed
SMILES: CSCC[C@H](NC(=O)[C@H](Cc1ccc(O)cc1)NC(=O)CNC(=O)[C@H](CC(C)C)NC(=O)[C@@H](CO)NC(=O)[C@H](CC(C)C)NC(=O)[C@H](Cc1c[nH]cn1)NC(=O)[C@H](Cc1c[nH]cn1)NC(=O)[C@H](Cc1ccc(O)cc1)NC(=O)[C@@H](NC(=O)[C@H](CO)NC(=O)[C@H](CCC(=O)O)NC(=O)[C@H](C)N)[C@@H](C)O)C(=O)N[C@@H](Cc1ccc(O)cc1)C(=O)N[C@H](C(=O)N[C@@H](CC(C)C)C(=O)N[C@@H](CC(N)=O)C(N)=O)[C@@H](C)O
- % Inhibition at 2.5 uM [1]: 73%
- % Inhibition at 5 uM [1]: 86%

B8: Analog 61 (peptide)
peptide: AESTYHHLSLGYMYTL[dN]-NH2
modifications: N-terminus assumed
SMILES: CSCC[C@H](NC(=O)[C@H](Cc1ccc(O)cc1)NC(=O)CNC(=O)[C@H](CC(C)C)NC(=O)[C@H](CO)NC(=O)[C@H](CC(C)C)NC(=O)[C@H](Cc1c[nH]cn1)NC(=O)[C@H](Cc1c[nH]cn1)NC(=O)[C@H](Cc1ccc(O)cc1)NC(=O)[C@@H](NC(=O)[C@H](CO)NC(=O)[C@H](CCC(=O)O)NC(=O)[C@H](C)N)[C@@H](C)O)C(=O)N[C@@H](Cc1ccc(O)cc1)C(=O)N[C@H](C(=O)N[C@@H](CC(C)C)C(=O)N[C@H](CC(N)=O)C(N)=O)[C@@H](C)O
- % Inhibition at 2.5 uM [1]: 32%
- % Inhibition at 5 uM [1]: 55%

B10: Analog 46 (peptide)
peptide: [dA]ESTYHHLSLGYMYTLN-NH2
modifications: N-terminus assumed
SMILES: CSCC[C@H](NC(=O)[C@H](Cc1ccc(O)cc1)NC(=O)CNC(=O)[C@H](CC(C)C)NC(=O)[C@H](CO)NC(=O)[C@H](CC(C)C)NC(=O)[C@H](Cc1c[nH]cn1)NC(=O)[C@H](Cc1c[nH]cn1)NC(=O)[C@H](Cc1ccc(O)cc1)NC(=O)[C@@H](NC(=O)[C@H](CO)NC(=O)[C@H](CCC(=O)O)NC(=O)[C@@H](C)N)[C@@H](C)O)C(=O)N[C@@H](Cc1ccc(O)cc1)C(=O)N[C@H](C(=O)N[C@@H](CC(C)C)C(=O)N[C@@H](CC(N)=O)C(N)=O)[C@@H](C)O
- % Inhibition at 2.5 uM [1]: 41%
- % Inhibition at 5 uM [1]: 57%

B11: Analog 55 (peptide)
peptide: AESTYHHLS[dL]GYMYTLN-NH2
modifications: N-terminus assumed
SMILES: CSCC[C@H](NC(=O)[C@H](Cc1ccc(O)cc1)NC(=O)CNC(=O)[C@@H](CC(C)C)NC(=O)[C@H](CO)NC(=O)[C@H](CC(C)C)NC(=O)[C@H](Cc1c[nH]cn1)NC(=O)[C@H](Cc1c[nH]cn1)NC(=O)[C@H](Cc1ccc(O)cc1)NC(=O)[C@@H](NC(=O)[C@H](CO)NC(=O)[C@H](CCC(=O)O)NC(=O)[C@H](C)N)[C@@H](C)O)C(=O)N[C@@H](Cc1ccc(O)cc1)C(=O)N[C@H](C(=O)N[C@@H](CC(C)C)C(=O)N[C@@H](CC(N)=O)C(N)=O)[C@@H](C)O
- % Inhibition at 2.5 uM [1]: 56%
- % Inhibition at 5 uM [1]: 80%

B12: Peptide 25 (synthetic peptide of clone 25) (peptide)
peptide: AESTYHHLSLGYMYTLN-NH2
notes: also called clone 25 peptide; analogs 3 and 4
- % Inhibition at 2.5 uM [1]: 45%
- % Inhibition at 5 uM [1]: 59%

Binder: AESTFHHLSLGYMYTLN-NH2 [Analog 34]
- % Inhibition at 2.5 uM [1]: 38%
- % Inhibition at 5 uM [1]: 47%
